We go through 6 molecules from patent US20160024208A1 (Regeneron, published 2016).

Experiment [1] concerns the target T1, C-term Biotin Nav1.7 (3-1) peptide, human (human, not fully specified; C-terminal biotin attached via a G4S linker).
T1 construct: Synthetic peptide; also called Human Nav1.7 3-1 C-term biotin
T1 peptide: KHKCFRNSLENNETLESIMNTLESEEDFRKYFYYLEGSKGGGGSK
Description: SPR, captured biotin-peptide, antibody analyte.

For experiment [2], the target named is T2, full-length human Nav1.7 fused at its N-terminus to GFP, expressed in HEK293 cells (human, UniProt Q15858 1-1988).
T2 construct: Voltage-gated sodium channel alpha subunit; In the Western blot it stood as denatured cell lysate; also called hNav 1.7-GFP-HEK293; Nav 1.7-GFP-HEK293; not shown: green fluorescent protein (GFP) at the N-terminus
The experiment can be described thus: flow cytometry; % stained hNav1.7-GFP-HEK293 minus parental HEK293. Put shortly: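 Antibody (1-13 nM) incubated 20 min on ice with stably transfected hNav1.7-GFP-HEK293 or parental HEK293 cells in PBS/5% FBS, then 1.7 nM Cy5- or APC-labelled anti-Fc secondary for 20 min on ice. Flow cytometry of live-gated cells; specific binding = % stained transfected minus % stained parental.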
A general note: In flow cytometry, cells or beads pass a laser one at a time.

In experiment [3] the target is T3, N-Term Biotin Nav1.7 (3-1) peptide, mulatta (mulatta (monkey), not fully specified; N-terminal biotin attached via a G4S linker).
T3 construct: Synthetic peptide; also called Mulatta Nav1.7 3-1 N-term biotin; monkey
T3 peptide: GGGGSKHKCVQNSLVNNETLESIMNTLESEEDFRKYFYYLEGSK
The experiment can be described thus: SPR, captured antibody, peptide analyte. Put shortly:
(§1)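 Biacore SPR: antibody captured via Fc on anti-Fc surface, Nav1.7 loop peptides injected as analyte at several concentrations. Double-referenced sensorgrams globally fitted to a 1:1 model; KD = kd/ka, t1/2 = ln2/kd.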
(In general: SPR reads the build-up and loss of mass on a sensor chip optically.)

Experiment [4] concerns the target T4, Native Nav1.7 (3-1) peptide, rat (rat).
T4 construct: Synthetic peptide; also called Rat Nav1.7 3-1 native
T4 peptide: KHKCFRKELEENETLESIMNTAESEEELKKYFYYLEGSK
Description: SPR, captured antibody, peptide analyte. The essentials: as §1

For experiment [5], the target named is T2, full-length human Nav1.7 fused at its …. Description: flow cytometry on Nav1.7-GFP-HEK293, antibody 3.3 nM preincubated with 3.3 uM EC 3-1 peptide as competitor. Here is the method: The specificity of binding of anti-Naᵥ 1.7 human antibodies to full-length Naᵥ 1.7 expressed in HEK293 cells was determined by peptide competition experiments using flow cytometry.
HEK293 cells stably-transfected with full-length Naᵥ 1.7 fused at its N-terminus to GFP (Naᵥ 1.7-GFP-HEK293) were used for this study. Antibody binding to the transfected cells overexpressing Naᵥ 1.7 was compared to binding in the presence of excess peptide and to binding to the parental HEK293 cell line. To perform the binding experiments, adherent cells were collected using 1 mM EDTA in PBS, washed and re-suspended in cold PBS containing 5% FBS. For each binding experiment the anti-Naᵥ 1.7 antibody at a final concentration of 3.3 nM (in PBS/5% FBS) was added to cells either directly or after incubating for 10 min on ice with a 1000-fold molar excess (3.3 uM final concentration in PBS/5% FBS) of synthetic peptide with sequence corresponding to the loop specificity of the antibody. The antibodies designated as H4H391P, H4H443B, H4H448B, and H1M797N were preincubated as described above with a synthetic peptide corresponding to EC loop 3-1 (amino acid residues 269-338 of SEQ ID NO: 670), whereas the antibodies designated as H4H468P and H1 M852N were preincubated with a synthetic peptide corresponding to EC loop 3-3 (amino acid residues 1333-1382 of SEQ ID NO: 670). The antibody or antibody-peptide mixture was then allowed to incubate with cells for 20 min on ice, followed by addition of 500 uL of cold PBS/5% FBS. Cells were collected by centrifugation, resuspended in 500 uL of cold PBS/5% FBS, and then secondary antibody matched to the antibody isotype (either anti-human-Fc conjugated to Cyanine 5 or anti-mouse-Fc conjugated to allophyococyanin) was added. Binding was detected on the flow cytometry instrument and analyzed as percent binding using the instrument software. For FACS analysis appropriate gating was applied so that only healthy, live cells were counted. Background staining of secondary antibodies alone to Naᵥ 1.7-GFP-HEK293 cells was tested and recorded for all samples, and results ranged between 1-2% binding.

B1: H1M852N (antibody, V domains shown)
VH: QVQLVESGGGVVQPGRSLTLSCAASGFMFNRFGMHWVRQAPGKGLDWVAVIWYDGSNKYYADSVKGRFTISRDNSKNTLYLQVNSLRAEDTAVYYCAREGTPHYYDSSGLDYWGQGTLVTVSS
VL: AIQMTQSPSSLSAYVGDRVTITCRASQDIRNDLGWYQQKPGKAPNLLIYDISSLQSGVPSRFSGSGSGTDFTLTISSLQPEDFATYYCLQDYNYPLTFGGGTKVEIK
notes: constant region may differ; also called H4H852N
For B1, in experiment [1], the binding result is “no binding”. In experiment [2], the “% Binding Nav1.7” value worked out at 68.6%.

B2: H1M797N (antibody, V domains shown)
VH: QVQLVESGGGVVQPGRSLRLSCAASGFTFSSYGMHWVRQAPGKGLEWVAVISYDGNNKHFADSVKGRFTISRDNSKNTLNLQMNSLRAEDRAVYYCARGASGFVLDIWGQGTMVTVSS
VL: DIVMTQTPLSSPVTLGQPASISCRSSQSLVRSDGNTYLSWLQQRPGQPPRLLIYKISNRFSGVPDRFSGSGAGTDFTLKISRVEAEDVGIYFCMQTTQFPFTFGPGTKVDIK
What is called Kd is the constant that tells how readily two partners part at equilibrium. B2: the values for the dissociation constant (Kd) in experiment [3], in experiment [4] and in experiment [1] were 0.435 nM, 2.57 nM and 0.359 nM, respectively. Moreover, the values for the t1/2 in experiment [3], in experiment [4] and in experiment [1] were 43.7 min, 5.8 min and 99.1 min, respectively. Also, the “% Binding Nav1.7” value in experiment [2] was determined as 14.4%. The “% Binding Nav1.7 + 1000x Peptide (Competition Binding)” value (from here on “% Binding Nav1.7 + 1000x Peptide”) in experiment [5] was determined as 10.8%.

B3: H1M801N (antibody, V domains shown)
VH: QVQVVESGGGVVQPGRSLRLSCAASGFTFSNYGMHWVRQAPGKGLEWVTVISYDGSNKNYADSVKGRFTISRDNSKNTLYLQMNSLRAEDTAMYYCARGGSGFAFDIWGQGTMVTVSS
VL: DIVMTQTPLSSPVTLGQPASISCRSSQSLVRSDGNTYLSWLQQRPGQPPRLLIYKISNRFSGVPDRFSGSGAGTDFTLKISRVEADDVGVYYCMQTTQFPFTFGPGTKVDIK
notes: also called H1H801N
On to B3, for which the Kd turned out to be 0.889 nM in experiment [3], 4.16 nM in experiment [4] and 0.511 nM in experiment [1]. For the same molecule, the t1/2 in experiment [3] turned out to be 16.8 min; in experiment [4], 3.6 min; in experiment [1], 71 min. For the same molecule, in experiment [2], the “% Binding Nav1.7” value was 49.5%. Also, in experiment [5], the “% Binding Nav1.7 + 1000x Peptide” value came to 1.9%.

B4: H1M836N (antibody, V domains shown)
VH: QVQLVESGGGVVQPGRSLRLSCAASGFTFSSYGMHWVRQAPGKGLEWVAVISYDGNNKYYADSVKGRFTISRDNSKNTLYLQMNSLRAEDTAVYYCAKGSAGYALDYWGQGTLVTVSS
VL: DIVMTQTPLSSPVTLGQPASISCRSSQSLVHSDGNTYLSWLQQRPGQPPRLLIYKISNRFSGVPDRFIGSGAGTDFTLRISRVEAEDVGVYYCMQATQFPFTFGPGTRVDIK
Consider B4, for which the dissociation constant Kd in experiment [3] was determined as 18.1 nM; in experiment [4], 298 nM; in experiment [1], 19.2 nM. The t1/2 was 1.7 min in experiment [3], 0.1 min in experiment [4] and 3.8 min in experiment [1]. Further, the “% Binding Nav1.7” value in experiment [2] amounted to 68.9%. Also, the “% Binding Nav1.7 + 1000x Peptide” value in experiment [5] is 2.2%.

B5: H1M879N (antibody, V domains shown)
VH: EVQLVESGGGLVKPGGSLRLSCAASGFTFSSYTIHWVRQAPGKGLEWVSSISSSSSYIYYVDSVKGRFTISRDNAKNSVYLQMNSLRAEDTAVYYCATSSITARGYFDYWGQGTLVTVSS
VL: EIVLTQSPATLSLSPGERVTLSCRASQSVSSYLAWYQQKPGQAPRLLIYDASNRATGIPARFSGSGSGTDFTLTISSLEPEDFAVYYCQQRNIWPPTFGQGTKVEIK
notes: Hybridoma-derived
Consider B5, for which, in experiment [3], the affinity, expressed as Kd, was 1.05 nM and the t1/2 was 11.7 min. Moreover, the binding result in experiment [4] is reported as “no binding”. Moreover, in experiment [1], the dissociation constant Kd was determined as 0.27 nM and the t1/2 turned out to be 87 min. Besides, in experiment [2], the “% Binding Nav1.7” value was determined as 63%. Moreover, the “% Binding Nav1.7 + 1000x Peptide” value in experiment [5] is 1.3%.

B6: H1H1006B (antibody, V domains shown)
VH: EVQLVESGPGLVKSSETLSLKCTVSGGSISSSGYYWGWIRQPPGKGLEWIGSIHRSGSTFYNPSLKSRVTISVDTSKSQFSLRLTSVTAADTSVYFCGRHGRDYYYGMDVWGQGTTVTVSS
VL: DIQMTQSPSSVSASVGDRVTITCRSSQDINNWLVWYQQKPGKAPKVLIYGASRLQSGVPSRFSGSGSGTDFTLTISSLQPEDFATYYCQQANSFPLTFGGGTKVEIKR
notes: Fully human antibody; also called H4H1006B-1
On to B6, for which the dissociation constant (Kd) in experiment [3] was determined as 6.1 nM; in experiment [4], 33.9 nM; in experiment [1], 0.239 nM. For the same molecule, the values for the t1/2 in experiment [3], in experiment [4] and in experiment [1] were 7.5 min, 0.74 min and 81.7 min, respectively. For the same molecule, the “% Binding Nav1.7” value in experiment [2] turned out to be 8.6%.
